# Test results as given in article PMC2522368 (Molecular cell, 2008).
# pKd: −log10 of the molar value.
# Key:
# [1] = target: talin-R4 (1654-1848) (UniProt P26039); experiment: SPR
# [2] = target: talin-R6-R8 (1984-2344) (UniProt P26039); experiment: SPR
# [3] = target: talin-RM (1654-2344) (UniProt P26039); experiment: SPR
# [4] = target: talin-H (Mus musculus, UniProt P26039); experiment: SPR, lipid immobilised on biotin chip, talin-H injected; assay type: binding; details: labelled compound; 10 mM Hepes, pH 7.4, 37 °C
# talin-H, sequence (P26039 1-433): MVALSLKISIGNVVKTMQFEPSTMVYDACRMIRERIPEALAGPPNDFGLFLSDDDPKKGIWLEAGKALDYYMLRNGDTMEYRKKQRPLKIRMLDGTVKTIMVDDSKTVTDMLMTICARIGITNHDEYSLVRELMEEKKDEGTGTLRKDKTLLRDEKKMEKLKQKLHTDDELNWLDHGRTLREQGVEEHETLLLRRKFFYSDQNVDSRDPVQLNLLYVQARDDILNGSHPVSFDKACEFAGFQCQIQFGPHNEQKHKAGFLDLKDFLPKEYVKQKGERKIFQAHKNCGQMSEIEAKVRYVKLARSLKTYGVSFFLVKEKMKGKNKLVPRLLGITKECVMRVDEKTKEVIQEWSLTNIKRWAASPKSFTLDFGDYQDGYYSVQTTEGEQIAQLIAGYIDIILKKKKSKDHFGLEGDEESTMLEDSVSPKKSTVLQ
# [5] = target: PIPKIγ peptide (Mus musculus) (UniProt O70161); details: cited from earlier work
# PIPKIγ peptide (Mus musculus), sequence (O70161 whole entry): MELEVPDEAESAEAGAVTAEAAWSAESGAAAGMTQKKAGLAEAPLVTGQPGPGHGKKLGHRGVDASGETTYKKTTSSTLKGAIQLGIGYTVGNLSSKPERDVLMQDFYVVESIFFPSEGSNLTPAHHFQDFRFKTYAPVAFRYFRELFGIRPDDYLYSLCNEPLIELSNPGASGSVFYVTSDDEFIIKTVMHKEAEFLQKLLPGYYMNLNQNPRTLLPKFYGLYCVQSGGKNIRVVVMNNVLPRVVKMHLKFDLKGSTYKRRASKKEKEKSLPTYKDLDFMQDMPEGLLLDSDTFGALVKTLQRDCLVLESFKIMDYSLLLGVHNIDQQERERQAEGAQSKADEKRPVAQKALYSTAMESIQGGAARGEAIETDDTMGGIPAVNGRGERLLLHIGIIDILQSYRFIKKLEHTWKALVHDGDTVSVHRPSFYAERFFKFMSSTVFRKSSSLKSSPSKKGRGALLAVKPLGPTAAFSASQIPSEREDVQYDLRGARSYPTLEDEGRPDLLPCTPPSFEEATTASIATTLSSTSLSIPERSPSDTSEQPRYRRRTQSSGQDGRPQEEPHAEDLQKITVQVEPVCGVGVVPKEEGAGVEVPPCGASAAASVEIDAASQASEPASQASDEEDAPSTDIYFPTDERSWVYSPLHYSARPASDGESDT
# talin-RM (1654-2344), sequence (P26039 1654-2344): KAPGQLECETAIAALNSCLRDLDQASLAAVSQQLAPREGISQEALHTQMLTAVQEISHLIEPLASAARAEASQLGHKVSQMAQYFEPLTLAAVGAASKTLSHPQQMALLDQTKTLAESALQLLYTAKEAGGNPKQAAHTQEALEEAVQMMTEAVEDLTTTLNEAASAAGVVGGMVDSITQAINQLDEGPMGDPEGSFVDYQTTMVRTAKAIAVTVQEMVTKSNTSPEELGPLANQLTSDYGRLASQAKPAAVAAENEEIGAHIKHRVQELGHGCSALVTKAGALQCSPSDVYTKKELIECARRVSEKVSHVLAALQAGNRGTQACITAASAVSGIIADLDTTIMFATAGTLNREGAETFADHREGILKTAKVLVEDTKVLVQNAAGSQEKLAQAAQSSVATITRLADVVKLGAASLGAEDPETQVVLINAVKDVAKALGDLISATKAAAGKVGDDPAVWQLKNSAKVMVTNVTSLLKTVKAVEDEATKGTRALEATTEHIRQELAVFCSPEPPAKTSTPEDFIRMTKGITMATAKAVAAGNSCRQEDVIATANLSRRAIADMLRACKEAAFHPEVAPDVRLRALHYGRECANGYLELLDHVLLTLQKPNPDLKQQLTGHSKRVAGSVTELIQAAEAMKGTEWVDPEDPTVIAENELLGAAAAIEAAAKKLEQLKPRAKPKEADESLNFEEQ
# talin-PTB PTB, sequence (P26039 309-405): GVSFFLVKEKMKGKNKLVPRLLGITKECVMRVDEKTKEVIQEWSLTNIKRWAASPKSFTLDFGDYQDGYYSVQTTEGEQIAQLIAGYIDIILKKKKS
# talin-R6-R8 (1984-2344), sequence (P26039 1984-2344): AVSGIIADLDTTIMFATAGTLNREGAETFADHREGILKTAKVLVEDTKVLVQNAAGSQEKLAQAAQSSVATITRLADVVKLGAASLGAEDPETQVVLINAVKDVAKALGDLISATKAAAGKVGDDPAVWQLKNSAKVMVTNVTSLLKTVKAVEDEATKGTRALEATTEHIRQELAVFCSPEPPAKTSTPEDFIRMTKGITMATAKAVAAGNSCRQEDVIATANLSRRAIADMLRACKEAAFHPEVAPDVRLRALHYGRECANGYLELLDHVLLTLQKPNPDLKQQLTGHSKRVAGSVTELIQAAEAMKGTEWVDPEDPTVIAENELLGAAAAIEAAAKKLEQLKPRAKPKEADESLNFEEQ
# talin-R4 (1654-1848), sequence (P26039 1654-1848): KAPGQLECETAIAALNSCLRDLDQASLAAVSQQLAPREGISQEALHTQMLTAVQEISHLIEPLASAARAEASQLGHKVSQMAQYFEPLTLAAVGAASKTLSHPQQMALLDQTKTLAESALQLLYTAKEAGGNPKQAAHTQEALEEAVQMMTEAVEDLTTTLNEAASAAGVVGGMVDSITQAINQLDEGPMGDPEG
Substance,pKd [3],other results
biotinylated C6-PIP2,–,pKd [4]: ~7.05
talin-PTB PTB (from UniProt P26039),–,pKd [5]: 6.57
talin-PTB S365D (from UniProt P26039 306-405) (domain or fragment),2.78,–
talin-PTB S379R (from UniProt P26039 306-405) (domain or fragment),3.20,–

# More lines, in order of rising pKd [3], values ahead:
pKd [3],Substance,other results
3.50,talin-PTB Q381V (from UniProt P26039 306-405) (domain or fragment),–
4.09,talin-PTB M319A (from UniProt P26039 306-405) (domain or fragment),–
6.18,talin-PTB L325R (from UniProt P26039 306-405) (domain or fragment),–
6.24,"WT talin-PTB (talin-F3/PTB, 306-405) (from UniProt P26039 306-405) (domain or fragment)",pKd [1]: 5.44; pKd [2]: 4.11
6.28,talin-PTB W359A (from UniProt P26039 306-405) (domain or fragment),–
